Measurements published in publication PMC11014249.
Read-outs that look alike come from different tables or passages of the source.

Columns and labels:
[1] = biological target: RccR from Pseudomonas aeruginosa (P. aeruginosa); experiment: SEC
RccR E200A [2] = biological target: T1, RccR E200A (Pseudomonas aeruginosa, UniProt A0A071KWR3 1-293, E200A); experiment: EMSA
T1 sequence: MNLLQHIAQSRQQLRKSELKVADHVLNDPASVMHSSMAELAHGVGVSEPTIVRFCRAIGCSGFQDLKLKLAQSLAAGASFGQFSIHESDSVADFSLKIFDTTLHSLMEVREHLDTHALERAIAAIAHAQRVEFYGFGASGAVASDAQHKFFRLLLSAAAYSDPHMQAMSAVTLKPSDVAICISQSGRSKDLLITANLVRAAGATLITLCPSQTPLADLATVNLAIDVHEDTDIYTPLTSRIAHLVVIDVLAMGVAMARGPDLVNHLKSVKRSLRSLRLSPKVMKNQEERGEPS

RccR (PaRccR) = biological target: T2, RccR (PaRccR) (Pseudomonas aeruginosa, UniProt A0A071KWR3 1-293); experiment: EMSA
T2 sequence: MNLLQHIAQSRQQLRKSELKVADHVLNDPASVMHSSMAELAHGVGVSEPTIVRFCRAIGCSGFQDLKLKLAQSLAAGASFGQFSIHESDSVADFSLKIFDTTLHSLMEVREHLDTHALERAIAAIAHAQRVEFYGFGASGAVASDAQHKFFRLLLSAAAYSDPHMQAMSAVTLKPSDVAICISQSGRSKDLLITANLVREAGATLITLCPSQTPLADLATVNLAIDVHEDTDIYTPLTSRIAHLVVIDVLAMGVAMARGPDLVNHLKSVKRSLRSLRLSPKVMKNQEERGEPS

RccR ΔSLR = biological target: T3, RccR ΔSLR (Pseudomonas aeruginosa, UniProt A0A071KWR3 1-274+278-293, internal_change); experiment: EMSA
T3 sequence: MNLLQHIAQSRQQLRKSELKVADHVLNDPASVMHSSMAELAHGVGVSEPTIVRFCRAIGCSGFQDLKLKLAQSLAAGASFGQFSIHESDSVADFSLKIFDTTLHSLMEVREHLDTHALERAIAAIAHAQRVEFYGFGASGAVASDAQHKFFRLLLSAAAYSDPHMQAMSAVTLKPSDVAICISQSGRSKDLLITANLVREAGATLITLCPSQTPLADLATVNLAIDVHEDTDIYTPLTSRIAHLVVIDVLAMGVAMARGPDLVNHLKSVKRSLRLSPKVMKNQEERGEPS

RccR R152A = biological target: T4, RccR R152A (Pseudomonas aeruginosa, UniProt A0A071KWR3 1-293, R152A); experiment: EMSA
T4 sequence: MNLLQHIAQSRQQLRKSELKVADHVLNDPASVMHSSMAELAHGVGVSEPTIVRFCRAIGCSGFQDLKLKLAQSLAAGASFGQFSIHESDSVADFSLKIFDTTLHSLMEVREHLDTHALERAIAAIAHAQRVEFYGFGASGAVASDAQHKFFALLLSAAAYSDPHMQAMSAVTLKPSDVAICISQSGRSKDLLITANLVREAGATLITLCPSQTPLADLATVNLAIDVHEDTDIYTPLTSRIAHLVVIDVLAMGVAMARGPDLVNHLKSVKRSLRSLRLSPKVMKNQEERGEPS

RccR H148A = biological target: T5, RccR H148A (Pseudomonas aeruginosa, UniProt A0A071KWR3 1-293, H148A); experiment: EMSA
T5 sequence: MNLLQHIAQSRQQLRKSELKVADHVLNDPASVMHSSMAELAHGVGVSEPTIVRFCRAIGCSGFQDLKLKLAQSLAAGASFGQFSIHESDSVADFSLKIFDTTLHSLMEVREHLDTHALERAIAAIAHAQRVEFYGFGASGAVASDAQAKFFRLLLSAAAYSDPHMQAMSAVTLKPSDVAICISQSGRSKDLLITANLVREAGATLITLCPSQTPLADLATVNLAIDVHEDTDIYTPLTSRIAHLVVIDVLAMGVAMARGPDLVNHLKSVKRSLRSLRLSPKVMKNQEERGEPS

RccR K270A = biological target: T6, RccR K270A (Pseudomonas aeruginosa, UniProt A0A071KWR3 1-293, K270A); experiment: EMSA
T6 sequence: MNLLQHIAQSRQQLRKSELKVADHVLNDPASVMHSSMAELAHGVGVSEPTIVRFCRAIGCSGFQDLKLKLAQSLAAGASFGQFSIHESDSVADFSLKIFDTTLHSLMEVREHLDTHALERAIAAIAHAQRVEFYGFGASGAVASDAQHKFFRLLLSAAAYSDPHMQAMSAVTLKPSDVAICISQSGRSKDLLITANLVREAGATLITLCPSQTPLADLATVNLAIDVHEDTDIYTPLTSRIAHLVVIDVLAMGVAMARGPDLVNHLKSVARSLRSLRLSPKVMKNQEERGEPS

RccR H164A = biological target: T7, RccR H164A (Pseudomonas aeruginosa, UniProt A0A071KWR3 1-293, H164A); experiment: EMSA
T7 sequence: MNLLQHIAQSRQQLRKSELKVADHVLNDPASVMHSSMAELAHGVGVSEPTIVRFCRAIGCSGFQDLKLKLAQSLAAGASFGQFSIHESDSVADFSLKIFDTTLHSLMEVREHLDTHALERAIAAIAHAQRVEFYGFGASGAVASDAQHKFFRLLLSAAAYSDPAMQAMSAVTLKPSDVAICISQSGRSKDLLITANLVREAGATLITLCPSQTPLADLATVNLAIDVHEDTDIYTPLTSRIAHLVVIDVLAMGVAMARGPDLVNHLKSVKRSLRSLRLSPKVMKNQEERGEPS

RccR SSSS = biological target: T8, RccR SSSS (Pseudomonas aeruginosa, UniProt A0A071KWR3 1-293, S139A;S183A;S185A;S188A); experiment: EMSA
T8 sequence: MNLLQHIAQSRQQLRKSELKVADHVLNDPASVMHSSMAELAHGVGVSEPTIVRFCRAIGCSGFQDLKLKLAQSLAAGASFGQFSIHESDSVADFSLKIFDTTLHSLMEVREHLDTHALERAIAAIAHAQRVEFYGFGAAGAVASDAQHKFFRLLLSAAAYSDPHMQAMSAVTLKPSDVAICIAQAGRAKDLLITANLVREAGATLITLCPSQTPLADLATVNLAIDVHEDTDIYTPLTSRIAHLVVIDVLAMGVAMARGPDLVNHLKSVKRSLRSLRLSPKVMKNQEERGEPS

RccR T231A = biological target: T9, RccR T231A (Pseudomonas aeruginosa, UniProt A0A071KWR3 1-293, T231A); experiment: EMSA
T9 sequence: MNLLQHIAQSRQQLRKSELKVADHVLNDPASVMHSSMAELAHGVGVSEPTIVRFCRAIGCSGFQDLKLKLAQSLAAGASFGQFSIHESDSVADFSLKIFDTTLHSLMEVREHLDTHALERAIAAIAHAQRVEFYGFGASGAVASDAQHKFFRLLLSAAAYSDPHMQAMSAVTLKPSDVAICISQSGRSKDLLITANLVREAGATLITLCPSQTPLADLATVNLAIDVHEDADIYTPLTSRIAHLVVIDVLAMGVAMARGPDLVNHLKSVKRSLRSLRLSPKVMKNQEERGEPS

RccR E200A [3] = biological target: T1, RccR E200A; experiment: EMSA; remark: listed apart in the source

RccR from Pseudomonas aeruginosa (natural protein)
stoichiometry N [1]: 4

B1: PaceA (dsDNA)
DNA 1: TCGTGTAGTAGTCTTGAAAAAACACTACAAAA
DNA 2: TTTTGTAGTGTTTTTTCAAGACTACTACACGA
binding result (RccR E200A [2]): binds

B2: Variant1 (dsDNA)
DNA 1: ATCTGTAGTGGGACTACAAG
DNA 2: CTTGTAGTCCCACTACAGAT
binding result (RccR (PaRccR)): binds

B3: PaceE (dsDNA)
DNA 1: ATCTGTAGTAAAACTACAAG
DNA 2: CTTGTAGTTTTACTACAGAT
binding result (RccR ΔSLR): binds
binding result (RccR R152A): binds
binding result (RccR H148A): binds
binding result (RccR K270A): binds
binding result (RccR H164A): binds
binding result (RccR SSSS): binds
binding result (RccR T231A): binds
binding result (RccR E200A [3]): binds
